Test results reported in publication PMC5366180.

Assays:
[1] = target: T1, protein tyrosine kinase-7 (PTK7) ((Jurkat T-cells)) (UniProt Q13308); test: competition (AFM single-molecule force spectroscopy); details: 1 uM free sgc8c blocks; 38.3% before block; Aptamer tips prepared and stored in PBS; fixed Jurkat T-cells on Cell-Tak glass; pulling speeds 500-24000 nm/s; measurement buffer, pH and temperature not …; scale: % residual binding probability of tip sgc8c
T1 sequence: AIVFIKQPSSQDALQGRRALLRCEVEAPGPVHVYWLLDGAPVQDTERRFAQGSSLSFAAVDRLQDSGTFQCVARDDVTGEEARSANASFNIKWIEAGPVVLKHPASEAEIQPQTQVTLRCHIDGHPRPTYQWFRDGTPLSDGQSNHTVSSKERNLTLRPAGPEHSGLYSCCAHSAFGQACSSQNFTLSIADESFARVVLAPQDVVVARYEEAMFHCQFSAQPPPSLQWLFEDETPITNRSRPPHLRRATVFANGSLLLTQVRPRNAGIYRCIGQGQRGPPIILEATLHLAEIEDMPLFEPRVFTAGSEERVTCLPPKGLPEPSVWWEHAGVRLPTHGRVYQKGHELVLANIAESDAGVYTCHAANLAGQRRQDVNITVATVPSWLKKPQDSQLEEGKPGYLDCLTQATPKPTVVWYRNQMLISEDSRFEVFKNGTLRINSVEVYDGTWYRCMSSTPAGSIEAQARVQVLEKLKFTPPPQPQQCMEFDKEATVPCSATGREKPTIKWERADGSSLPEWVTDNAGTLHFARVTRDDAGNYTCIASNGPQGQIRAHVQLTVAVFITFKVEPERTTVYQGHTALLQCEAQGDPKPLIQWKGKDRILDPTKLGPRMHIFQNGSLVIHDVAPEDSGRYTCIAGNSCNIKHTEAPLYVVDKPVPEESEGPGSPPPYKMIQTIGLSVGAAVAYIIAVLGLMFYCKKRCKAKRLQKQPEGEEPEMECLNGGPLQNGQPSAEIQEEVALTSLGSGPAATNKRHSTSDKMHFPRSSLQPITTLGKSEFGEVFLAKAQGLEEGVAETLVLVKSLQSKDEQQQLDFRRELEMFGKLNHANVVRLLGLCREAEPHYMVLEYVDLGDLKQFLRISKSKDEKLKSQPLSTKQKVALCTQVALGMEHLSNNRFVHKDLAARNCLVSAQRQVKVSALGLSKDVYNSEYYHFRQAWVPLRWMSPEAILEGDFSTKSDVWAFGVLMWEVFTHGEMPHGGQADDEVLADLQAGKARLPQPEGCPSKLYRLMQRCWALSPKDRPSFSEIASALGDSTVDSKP

[2] = target: T1, protein tyrosine kinase-7 (PTK7) ((Jurkat T-cells)); test: AFM single-molecule force spectroscopy; details: fixed Jurkat T-cells on Cell-Tak glass, pulling speeds 500-24000 nm/s, measurement buffer, pH and temperature not …
[3] = target: T1, protein tyrosine kinase-7 (PTK7) ((Jurkat T-cells)); test: cited value; details: 5' NH2 or 5' SH; Aptamer tips prepared and stored in PBS; fixed Jurkat T-cells on Cell-Tak glass; pulling speeds 500-24000 nm/s; measurement buffer, pH and temperature not …; cited from earlier work

Sequence: ATCTAACTGCTGCGCCGCGAAAATACTGTACGGTTAGA [sgc8c (free)]
- binding signal [1]: 10.2

Sequence: ATCTAACTGCTGCGCCGCGAAAATACTGTACGGTTAGA [sgc8c (tip-tethered)]
- binding signal (% binding probability) ([2]; koff 5.16 ± 0.19 s-1, x_beta 0.65 ± 0.01 Å, 5' NH2 or 5' SH, Aptamer tips prepared and stored in PBS): 38.3
- Kd [3]: 0.8 nM

Sequence: CACCGGGAGGATAGTTCGGTGGCTGTTCAGGGTCTCCTCCCGGTG [TDO5]
- binding signal (% binding probability) ([2]; background level, stated not to bind PTK7, 5' NH2, Aptamer tips prepared and stored in PBS): 8.27
